Residue numbers refer to the chain shown, from its start.
B1: ADI-19448 (antibody, V domains shown)
VH: EVQLLESGGGLVKPGGSLRLSCAASGFTFSSYSMNWVRQAPGKGLEWVSSISSSSSYIYYADSVKGRFTISRDNAKNSLYLQMNSLRAEDTAVYYCARELLDPGIAAAGFDYWGQGTLVTVSS
VL: QSVLTQPPSVSGAPGQRVTISCTGSSSNIGAGYDVHWYQQLPGTAPKLLIYGNSNRPSGVPDRFSGSKSGTSASLAITGLQAEDEADYYCQSYDSSLSVNYVFGTGTKVTVL
notes: full-length IgG
B2: ADI-25479 (antibody, V domains shown)
VH: EVQLVESGGGLVKPGGSLRLSCAASGFTFSSYSMNWVRQAPGKGLEWVSSISSSSSYIYYADSVKGRFTISRDNAKNSLYLQMNSLRAEDTAVYYCARGGYSYGAYYYYYMDVWGKGTTVTVSS
VL: B1 VL with V99G, N100Y, Y101W, T105G, V109L
notes: full-length IgG
B3: ADI-25480 (antibody, V domains shown)
VH: B2 VH
VL: B1 VL with V99G, N100Y, Y101W, T105G
notes: full-length IgG; also called Ab 430
B4: ADI-19432 (antibody, V domains shown)
VH: QVQLVQSGAEVKKPGASVKVSCKVSGYTLTELSMHWVRQAPGKGLEWMGGFDPEDGETIYAQKFQGRVTMTEDTSTDTAYMELSSLRSEDTAVYYCATEREEGGYSGYDDAFDIWGQGTMVTVSS
VL: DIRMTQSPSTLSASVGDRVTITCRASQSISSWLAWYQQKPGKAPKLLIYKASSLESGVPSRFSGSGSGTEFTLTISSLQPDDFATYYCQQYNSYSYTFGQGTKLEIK
notes: full-length IgG
B5: ADI-19510 (antibody, V domains shown)
VH: EVQLVESGGGLVKPGGSLRLSCAASGFSLSSYYMNWVRQAPGKGLEWVSSISSSSTYINYADSVKGRFTISRDNAKNSLYLQMNSLRAEDTAVYYCARGGSITIFGVVFDSWGQGTLVTVSS
VL: SYELTQPPSVSGAPGQRVTISCTGTSSNIGAGYDVHWYQQLPGTAPKLLIYVNSNRPSGVPDRFSGSKSGTSASLAITGLQAEDEADYYCQSYDSSLSGGVFGTGTKVTVL
notes: full-length IgG; also called Ab 210
B6: ADI-19427 (antibody, V domains shown)
VH: EVQLVESGGGLVKPGGSLRLSCAASGFTFSSYSMNWVRQAPGKGLEWVSSISSSSSFISYADSVKGRFTISRDSAKNSLYLQMNSLRAEDTAVYYCARDHPNWNGLAYFDYWGQGTLVTVSS
VL: QSVLTQPPSISGAPGQRVTISCTGSSSNIGAGYDVQWHQQLPGTAPKLLIYGNSNRPSGVPDRFSGSKSGTSASLAITGLQAEDEADYYCQSYDSSLSGWVFGGGTKLTVL
notes: full-length IgG
B7: ADI-25478 (antibody, V domains shown)
VH: EVQLLESGGGLVKPGGSLRLSCAASGFTFSSYSMNWVRQAPGKGLEWVSSISSSSSYIYYADSVKGRFTISRDNAKNSLYLQMNSLRAEDTAVYYCARLDYSNYYYYMDVWGKGTTVTVSS
VL: B6 VL with S2P, I10V, Q36H, H38Y, W100Y, G104T
notes: full-length IgG
B8: ADI-19509 (antibody, V domains shown)
VH: EVQLVESGGGLVKPGGSLRLSCAASGFTFSSYSMNWVRQAPGKGLEWVSSISSSSSYIYYADSVKGRFTISRDNAKNSLYLQMNSLRAEDTAVYYCASSRRSLTGDRGGWFDPWGQGTLVTVSS
VL: B6 VL with I10V, Q36H, H38Y
notes: full-length IgG
B9: ADI-24859 (antibody, V domains shown)
VH: EVQLLESGGGLVKPGGSLRLSCAASGFTFSSYSMNWVRQAPGKGLEWVSSISSSSSYIYYADSVKGRFTISRDNAKNSLYLQMNSLRAEDTAVYYCARDGSPINWVSPFPFDYWGQGTLVTVSS
VL: B6 VL with S2P, I10V, Q36H, H38Y, W100S, K107Q
notes: full-length IgG; also called Ab 419
B10: ADI-24799 (antibody, V domains shown)
VH: EVQLVESGGGLVKPGGSLRLSCAASGFTFSSYSMNWVRQAPGKGLEWVSSISSSSSYIYYADSVKGRFTISRDNAKNSLYLQMNSLRAEDTAVYYCAREGRDGYNYYFDYWGQGTLVTVSS
VL: B6 VL with I10V, Q36H, H38Y, W100S
notes: full-length IgG
B11: ADI-19431 (antibody, V domains shown)
VH: EVQLVESGGGLVKPGGSLRLSCAASGFTFSSYSMNWVRQAPGKGLEWVSSISSSSSYIYYADSVKGRFTISRDNAKNSLYLQMNSLRAEDTAVYYCARELYDYVWGSYRDYWGQGTLVTVSS
VL: B6 VL with S2P, V3G, I10V, Q36H, H38Y, W100S, L108V
notes: full-length IgG
B12: ADI-19428 (antibody, V domains shown)
VH: EVQLLESGGGLVKPGGSLRLSCAASGFTFSSYSMNWVRQAPGKGLEWVSSISSSSSYIYYADSVKGRFTISRDNAKNSLYLQMNSLRAEDTAVYYCARDSCSGGSCYSPRFDPWGQGTLVTVSS
VL: QSVLTQPPSVSGAPGQRVTISCTGSSSNIGAGYDVHWYQQLPGTAPKLLIYGNSNRPSGVPDRFSGSKSGTSASLAITGLQAEDEADYYCQSYDSTVVFGGGTKLTVL
notes: full-length IgG
B13: ADI-19433 (antibody, V domains shown)
VH: B10 VH with E99A, G100P, R101P, D102S, G103V, Y104G, N105G, Y106W, Y110L, Q113R
VL: B12 VL with S2P, T96S, V97L
notes: full-length IgG
B14: ADI-24812 (antibody, V domains shown)
VH: EVQLVESGGGLVQPGGSLRLSCAASGFSFSTYAMSWVRQAPGKGLEWVSAISGGGGSTYYADSVKGRFTISRDNSKNTLYLQVNSLRAEDTAVYYCARGGYCSSDSCYPFDFWGQGTLVTVSS
VL: QPVLTQPPSVSVSPGQTAMITCSGDALPKQYAYWYQQKPGQAPVLVIYKDSERPSGIPERFSGSSSGTTVTLTISGVQAEDEADYYCQSADNSGSYAVFGGGTQLTVL
notes: full-length IgG
B15: ADI-19494 (antibody, V domains shown)
VH: QVQLVQSGAEVKKPGSSVKVSCKASGGTFSSYVISWVRQAPGQGLEWMGGIIPIFGTTYYAQKFQDRVTITTDESTSTAYMELSSLRSEDTAVYYCARDLRYRYNAYDGADAFDIWGQGTTVTVSS
VL: QSALTQPASVSGSPGQSITISCTGTSSDVGGYNYVSWYQQHPGKAPKLMIFEVSNRPSGVSNRFSGSKSGNTASLTISGLQAEDEADYYCTSYTKSNSVVFGGGTKLTVL
notes: full-length IgG
B16: ADI-19458 (antibody, V domains shown)
VH: EVQLVESGGGRVKPGGSLRLSCAASGFTFRSYSMNWVRQAPGKGLEWVSSISSSSSYINYADSVKGRFTISRDNAKNSLYLQMNSLRAEDTAVYYCARDGSGMTIFGVVIDYWGQGTLVTVSS
VL: QSVLTQPPSVSGAPGQRVTISCTGSSSNIGAGYDVHWYQQLPGTAPKLLIYGNSNRPSGVPDRFSGSKSGTSASLAITGLQAEDEADYYCQSYDRSLTVVFGGGTKLTVL
notes: full-length IgG
B17: ADI-24827 (antibody, V domains shown)
VH: EVQLVESGGGLVQPGGSLRLSCAASGFTVSSNYMSWVRQAPGKGLEWVSVIYSDGSTYYADSVKGRFTISRHNSKNTLYLQMNSLRAEDTAVYYCARCSTYGDYIDWYFDLWGRGTLVTVSS
VL: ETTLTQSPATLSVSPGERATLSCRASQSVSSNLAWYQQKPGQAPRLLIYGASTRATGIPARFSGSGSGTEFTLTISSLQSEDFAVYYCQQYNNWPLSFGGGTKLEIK
notes: full-length IgG
B18: ADI-19459 (antibody, V domains shown)
VH: QVQLVESGGGLVQPGGSLRLSCAASGFTVSSNYMSWVRQAPGKGLEWVSVIYSGGSTYYADSVKGRFTISRDNSKNTLYLQMNSLRAEDTAVYYCAREALGMDHWYFDLWGRGTLVTVSS
VL: SYELMQPPSVSVAPGKTARITCGGNNIGSKSVHWYQQKPGQAPVLVVYDDSDRPSGIPERFSGSNSGNTATLTISRVEAGDEADYYCQVWDSSSDHPVFGGGTKVTVL
notes: full-length IgG
B19: ADI-14334 (antibody, V domains shown)
VH: EVQLVESGGGLVKPGGSLRLSCAASGVTVSSYYMTWVRQAPGKGLEFISDISSSSTYTNYADSVKGRFTISRDNAKSSLYLQMNNLRAEDTAVYYCARLGITVTGVGYFDLWGRGTLVTVSS
VL: QPGLTQPPSVSGAPGQRVTISCTGSSSNIGAGYDVHWYQQLPGTAPKLLIHDNNNRPSGVPDRFSGSKSGTSASLAITGLQVEDEADYYCQSYDSSLSNYVFGTGTKLTVL
notes: full-length IgG; also called Ab 2
B20: ADI-14336 (antibody, V domains shown)
VH: EVQLLESGGEVKKPGASVKVSCKASGYTFTNYGISWVRQAPGQGLEWMGWISAYNGNTNYAQKLQGRVTMTTDTSTSTAYMEVRRLRSDDTAVYYCAREPPVIAAGDFQHWGQGTLVTVSS
VL: DIVMTQTPLSLPVTLGQPASISCRSSQSLVHSDTNIYLSWFQQRPGQSPRRLIYKVSNRDSGVPDRFSGSGSGTDFTLRISRVEAEDVGVYYCMQGTHWPPDFGQGTRLEIK
notes: full-length IgG; also called Ab 4

target: T1, RSV postfusion F (postF), subtype A (respiratory syncytial virus subtype A, UniProt P03420 26-513); test: BLI
T1 construct: also called Postfusion subtype A; F deltaFP

B1: no binding.
B2: no binding.
B3: no binding.
B4: no binding.
B5: no binding.
B6: no binding.
B7: no binding.
B8: no binding.
B9: no binding.
B10: no binding.
B11: no binding.
B12: no binding.
B13: no binding.
B14: no binding.
B15: no binding.
B16: no binding.
B17: no binding.

target: T2, RSV prefusion F (preF), subtype B (respiratory syncytial virus subtype B); test: BLI, IgG
T2 construct: also called Prefusion subtype B

B1 and B2 are within 1.5-fold of each other in Kd: 5.58 nM for the first, 4.29 nM for the second.

Compared with B3, B18 is 2.9-fold lower in Kd: 4.27 nM for the first, 1.45 nM for the second. The second binds more tightly here.

Going from B5 to B19, the Kd rises from 0.239 nM to 0.622 nM (2.6-fold). The first binds more tightly here.

Compared with B6, B7 is 13-fold higher in Kd: 0.5 nM for the first, 6.43 nM for the second. The first binds more tightly here.

Compared with B8, B9 is 3.1-fold higher in Kd: 1.58 nM for the first, 4.95 nM for the second.

First: B10
Second: B11
The Kd of the first is 6-fold higher: 19 nM for the first, 3.16 nM for the second. The second binds more tightly here.

Compared with B12, B14 is 2.2-fold lower in Kd: 16.7 nM for the first, 7.58 nM for the second.

Going from B16 to B20, the Kd rises from 0.243 nM to 2.65 nM (11-fold).

With B17 the Kd was 6.62 nM.

target: RSV F on RSV subtype A virus (mKate-RSV A2) (respiratory syncytial virus A2, UniProt P03420 26-574); test: cell-based or functional assay

First: B1
Second: B2
The “Neut IC50 subtype A” value of the first is 40-fold higher: 9.64 µg/mL for the first, 0.24 µg/mL for the second.

Going from B3 to B18, the “Neut IC50 subtype A” value falls from 0.17 µg/mL to 0.05 µg/mL (3.4-fold).

First: B4
Second: B5
The “Neut IC50 subtype A” value of the first is 69-fold higher: 11 µg/mL for the first, 0.16 µg/mL for the second.

Going from B19 to B6, the “Neut IC50 subtype A” value falls from 0.05 µg/mL to 0.01 µg/mL (5-fold).

First: B7
Second: B8
The “Neut IC50 subtype A” value of the first is 1.6-fold lower: 2.18 µg/mL for the first, 3.42 µg/mL for the second.

Compared with B9, B10 is 20-fold higher in “Neut IC50 subtype A” value: 0.58 µg/mL for the first, 11.5 µg/mL for the second.

B11 and B12 are within 1.5-fold of each other in “Neut IC50 subtype A” value: 4.35 µg/mL for the first, 3.25 µg/mL for the second.

Going from B13 to B14, the “Neut IC50 subtype A” value falls from 1.56 µg/mL to 0.18 µg/mL (8.7-fold).

First: B15
Second: B16
The “Neut IC50 subtype A” value of the first is 22-fold higher: 0.86 µg/mL for the first, 0.04 µg/mL for the second.

First: B20
Second: B17
The “Neut IC50 subtype A” value of the first is 3.5-fold higher: 0.07 µg/mL for the first, 0.02 µg/mL for the second.

target: RSV F on RSV subtype B virus (mKate-RSV B 18537) (respiratory syncytial virus B 18537, UniProt P13843 26-574); test: cell-based or functional assay

Compared with B2, B3 is 1.7-fold lower in “Neut IC50 subtype B” value: 0.29 µg/mL for the first, 0.17 µg/mL for the second.

Compared with B18, B5 is 8.3-fold higher in “Neut IC50 subtype B” value: 0.1 µg/mL for the first, 0.83 µg/mL for the second.

Going from B19 to B6, the “Neut IC50 subtype B” value falls from 0.11 µg/mL to 0.03 µg/mL (3.7-fold).

First: B7
Second: B8
The “Neut IC50 subtype B” value of the first is 2.3-fold higher: 3.52 µg/mL for the first, 1.56 µg/mL for the second.

Compared with B11, B16 is 2.4-fold lower in “Neut IC50 subtype B” value: 0.17 µg/mL for the first, 0.07 µg/mL for the second.

With B20 the “Neut IC50 subtype B” value was 0.09 µg/mL.

Reference: patent US20260258115A1 (MAPP BIOPHARMACEUTICAL, published 2026)
